The target of assay [1] is T1, coagulation factor Xa (human, UniProt P00742). As to the kind of experiment: saturation binding of ^125 I-factor Xa (0.45-36 nM) to EPR-1 CHO transfectants, 2.5 mM CaCl2. The protocol:
In FIG. A, wild-type (WT) CHO cells (closed squares) or EPR-1 CHO transfectants (closed circles) were incubated with increasing concentrations of ^125I-factor Xa (0.45–36 nM) for 15 minutes at 22° C. In the presence of 2.5 mM CaCl_2. Non-specific binding was assessed in the presence of a 50-fold molar excess of unlabeled factor Xa and was subtracted from the total to calculate net specific binding. Data are the mean±S.E.M. of two independent experiments. ^125I-factor Xa bound at saturation (27 nM) to EPR-1 CHO transfectants corresponded to 729,000±102,000 molecules/cell. […] Thrombin formation in the presence or in the absence of anti-EPR-1 mAb 9D4 (Altieri, et al., Id. (1990)) was assessed by a sensitive clotting assay as described (Altieri, et al., Id. (1989)). Data are expressed as mean±S.E.M. of two independent experiments.
The experimental procedures for the isolation, characterization and ^125I-labeling of factor Xa have been described previously (Altieri, et al., Id. (1989)). […] In the presence of 2.5 mM CaCl_2, before separation of free from cell-associated radioactivity by centrifugation through mixture of silicone oil (Dow Corning, New Bedford, Mass.) at 15,000 xg for 5 minutes at 22° C. Non-specific binding was assessed in the presence of a 50-fold molar excess of unlabeled factor Xa and was subtracted from the total to calculate net specific binding. […]

Assay [2] deals with T1, coagulation factor Xa. As to the kind of experiment: saturation binding of ^125 I-Xa to HuT 78* cells, 2.5 mM CaCl2. As for the experimental part: The procedures for the isolation, characterization, and ^125I-labelling of factor Xa were as described previously by Altieri, et al., *J. Biol. Chem.* 264: 2969 (1989). The interaction of ^125I-Xa with HuT 78* cells was analyzed by incubating increasing concentrations of ^125I-Xa (0.45 to 36 nM) with cell suspension at 1.5 to 2×10^7/ml in the presence of 2.5 mM CaCl_2 for 20 minutes at room temperature. At the end of the incubation, the reaction was terminated by centrifugation of aliquots of the cell suspension at 12,000×g for 2 minutes through a mixture of silicone oil to separate free from cell-associated radioactivity. Nonspecific binding was quantified in the presence of 50-fold molar excess of unlabelled factor Xa added at the start of the incubation reaction, and was subtracted from the total to yield net specific binding. In some studies, aliquots of HuT 78* cells were preincubated with 50 µg/ml of mAb 9D4 for 30 minutes at room temperature before the addition of serial concentrations of ^125I-Xa.
HuT 78* cells reacting with the rabbit polyclonal antiserum B78.9 were isolated to 94.2% purity by fluorescence sorting and cloned by limiting dilution. […] The reaction was terminated by centrifugation through mixture of silicone oils and ^125I-Xa specific binding to HuT 78* cells was calculated in the presence or absence of anti-EPR-1 mAb 9D4.

B1: Effector cell Protease Receptor-1 (EPR-1), on the cell surface (receptor)
chain: MTSRGFQRSCNNPPCSSMTGRRANQIHHLTPDFSLRELLPPKKAGTWADCVSPPCGERDRCEGWADRHTACSSPASTCQVHTQDCDSLNNMRSRHIHCGRLCHANKAVSSSKRDTAFFLPHFSPGKPGNQNSKNEPPKKRERERSSHCYPAAPAAQAEAPLVPLSRQNKSTVETSNLKMLISFPKTLLRGPQEGWWHQGINPGSGAATLGPGSSERPQSIEASCSMARRTFFAVSSNSFFLLLVSFAILFLALSLSSFKNSPRVNSSNCFLTERKAQPDECFLCSSMGSSSGSQPSSSLKQKKHWAKSGSFSVGQWMKPASAIRSGVQRSPPRRASS
Consider B1, for which the Kd (as a rule, the free concentration of one partner at which half of the binding sites on the other are occupied at equilibrium, for simple one-to-one binding) with coagulation factor Xa [1] is 10 to 15 nM; with coagulation factor Xa [2], 10 to 20 nM.

These data come from patent US6072028, “EPR-1 proteins, polypeptides, and nucleic acid molecules encoding same” (The Scripps Research Institute, dated 2000).
